Experimental data reported in US7419813B2, “Fructosyl peptide oxidase” (Kikkoman Corporation, priority 2001, dated 2008).

B1: Coniochaeta sp. NISL 9330: fructosyl peptide oxidase produced by Coniochaeta sp. NISL 9330 (FERM BP-7798) with less action on ε-fructosyl lysine; amino acid sequence SEQ ID NO: 1 (protein, listed as Coniochaeta sp.)
chain: MTSNRADTRVIVVGGGGTIGSSTALHLVRSGYAPANITVLDTFEIPSAQSAGHDLNKIMGIRLRNKVDLQMSLEARQMWKEDELFQPFFHNTGRMDCEHTPEGIEDLKKQYQALHDAGAGLEKTHAWLDNEDEILSKMPLLQRDQIQGWKAIWSQDGGWLAAAKAINAIGQFLKERGVKFGFGGAGSFKQPLFDDEGTTCIGVETADGTKYYADKVVLAAGAWSPTLVDLEDQCCSKAWVYAHIQLTPEEAAEYKGVPVVYNGEFGFFFEPNEFGVIKVCDEFPGFSRFKEHQPYGAPSPKHISVPRSHAKHPTDTYPDASEVSIKKAIATFLPRFQDKELFNRALCWCTDTADAALLMCEHPKWKNFILATGDSGHSFKILPNVGKHVVELIEGRLPEEMAYQWRWRPGGDALKSRRAAPPKDLADMPGWKHDPKL
B2: Eupenicillium terrenum ATCC 18547: fructosyl peptide oxidase produced by Eupenicillium terrenum ATCC 18547 with less action on ε-fructosyl lysine; amino acid sequence SEQ ID NO: 3 (protein, listed as Eupenicillium terrenum)
chain: MAHSRASTKVVVVGGGGTIGSSTALHLIRSGYTPSNITVLDVYKTPSLQSAGHDLNKIMGIRLRNGPDLQLSLESLDMWQNDELFKPFFHQVGMIDCSSSKEGIENLRRKYQTLLDAGIGLEKTNVWLESEDEILAKAPNFTREQVKGWKGLFCTDGGWLAAAKAINAIGIFLQDKGVKFGFGGAGTFQQPLFAADGKTCIGLETTDGTKYFADKVVLAAGAWSPTLVDLEDQCVSKAWVFAHIQLTPKEADAYKNVPVVYDGEYGFFFEPNEYGVIKVCDEFPGFSRFKLHQPYGAASPKMISVPRSHAKHPTDTYPDASEVTIRKAIARFLPEFKDKELFNRTMCWCTDTADANLLICEHPKWKNFILATGDSGHSFKLLPNIGKHVVELLEGSLSQEMAGAWRWRPGGDALRSRRGAPAKDLAEMPGWKHDAHL

How the values were obtained:
Assay type in all cases: biochemical
[1] = Enzyme activity assay, fructosyl glycine substrate; conditions: for Substrate specificity (% relative activity) FG: crude enzyme sample; for relative activity for fructosyl glycine: purified oxidase, compared to 100% activity for fructosyl valyl histidine
Source text: Enzyme activities of the oxidase of the invention and the oxidase of the invention that have less action on ε-fructosyl lysine (hereinafter, the term “the oxidases of the invention” may comprise both the oxidase of the invention and the oxidase of the invention that have less action on ε-fructosyl lysine) may principally be determined by determining the amount of α-ketoaldehyde, peptide, hydrogen peroxide or the like which are produced through enzyme reaction or by determining the amount of oxygen consumed by the enzyme reaction. Hereinafter, a method for determining the amount of hydrogen peroxide will be described as one example. Unless otherwise noted, fructosyl valyl histidine is used as a substrate for determining the activities of the oxidases of the invention. Titer of the enzyme is defined such that an amount of enzyme for producing 1 μmol hydrogen peroxide per minute is 1U as determined using a fructosyl valyl histidine substrate. 624 mg of fructosyl valyl histidine is dissolved in ion exchange water to a constant volume of 10 ml. Alternatively, fructosyl glycine or ε-fructosyl lysine of 357 mg or 462 mg, respectively, may be dissolved in ion exchange water to a constant volume of 10 ml to be used as a substrate. Fructosyl valine histidine was prepared as described in Japanese Patent Application Laid-Open (kohyo) No. 2001-95598. Fructosyl glycine and ε-fructosyl lysine were prepared according to a method of Horiuchi et al. (Agric. Biol. Chem., 53, 103-110, 1989; Agric. Biol. Chem., 55, 333-338, 1991). 2.7 ml of Reagent 1, 100 μl of Reagent 2 and 100 μl of enzyme solution are mixed and pre-heated at 30° C. for 5 minutes. Then, 100 μl of Reagent 3 is added and thoroughly mixed to determine absorbance at 510 nm using a spectrophotometer (U-[…], Hitachi, Ltd.). Measurement values indicate changes in the absorbance per minute at 510 nm after 1 to 3 minutes. A control solution was prepared in the same manner as described above except 100 μl ion exchange water was added instead of 100 μl Reagent 3. A standard solution of hydrogen peroxide and ion exchange water were used instead of Reagent 3 and the enzyme solution, respectively, to prepare a graph showing relationship with respect to the level of color. Referring to this graph, micromole of hydrogen peroxide produced per minute at 30° C. is calculated and used as the unit for expressing the activity of the enzyme solution. The presence of action on ε-fructosyl lysine can be determined in the same manner by using Reagent 3 (substrate solution) containing ε-fructosyl lysine substrate instead of fructosyl valyl histidine substrate.

[2] = Identifying reaction product by HPLC (TSK gel Amide-80); conditions: 2 mM fructosyl valyl histidine, 0.003U oxidase, 37° C. for 2 hours
Procedure: (§1) Reaction solution was assayed by HPLC to identify reaction products. First, 50 μl of reaction solution (2 mM fructosyl valyl histidine, 5 mM phosphate buffer (pH 8.0), 0.003U of the inventive oxidase) was incubated at 37° C. for 2 hours, diluted (10×) and then assayed for the reaction products in a TSK gel Amide-80 column (available from Tosoh Co., Ltd.). As a control, the same procedure was repeated except for using a buffer instead of the enzyme.
as §1, with “Similarly,” for “As”, “control sample” for “control, the same procedure”, “obtained by” for “repeated except for”, “enzyme and assayed.” for “enzyme.”

[3] = Km value for fructosyl valyl histidine (Lineweaver-Burk plot); conditions: purified oxidase
Procedure: In the above-described activity assay, the activity of the oxidase was monitored using different concentrations of fructosyl valyl histidine (substrate), and Michaelis constant (Km) was determined from a Lineweaver-Burk plot.
In the above-described activity assay, activity was monitored using different concentrations of fructosyl valyl histidine (substrate), and Michaelis constant (Km) was determined from a Lineweaver-Burk plot.

[4] = relative to activity for ε-fructosyl lysine (100%)

Molecule	Substrate specificity (% relative activity) FG [1, 4] [%]	relative activity for fructosyl glycine [1] [%]	reaction product identified by HPLC [2]	Substrate specificity (% relative activity) FG ([1]; relative to activity for fructosyl valyl histidine (100%)) [%]	Km [3] [mM]
B1	65	39			
B2	1862	182	a peak was detected only for valyl histidine	182	4.25
